Paper PMC4829300 (RNA Biology, 2016)

Key:
Prp43 1–657 = Prp43 1–657 (Saccharomyces cerevisiae, UniProt P53131); details: ATPase assay of the truncation; details in supplement
Prp43 92–767 = Prp43 92–767 (Saccharomyces cerevisiae, UniProt P53131); details: ATPase assay of the truncation; details in supplement
Prp43 = experiment: fluorescence anisotropy
[1] = test system: Prp43;Cmg1 (Saccharomyces cerevisiae?;Saccharomyces cerevisiae?); experiment: fluorescence anisotropy
His-GFP-tagged Prp43 = His-GFP-tagged Prp43 (S. cerevisiae, UniProt P53131 1-767); experiment: pull-down
His-GFP-tagged Prp43, sequence (P53131 whole entry): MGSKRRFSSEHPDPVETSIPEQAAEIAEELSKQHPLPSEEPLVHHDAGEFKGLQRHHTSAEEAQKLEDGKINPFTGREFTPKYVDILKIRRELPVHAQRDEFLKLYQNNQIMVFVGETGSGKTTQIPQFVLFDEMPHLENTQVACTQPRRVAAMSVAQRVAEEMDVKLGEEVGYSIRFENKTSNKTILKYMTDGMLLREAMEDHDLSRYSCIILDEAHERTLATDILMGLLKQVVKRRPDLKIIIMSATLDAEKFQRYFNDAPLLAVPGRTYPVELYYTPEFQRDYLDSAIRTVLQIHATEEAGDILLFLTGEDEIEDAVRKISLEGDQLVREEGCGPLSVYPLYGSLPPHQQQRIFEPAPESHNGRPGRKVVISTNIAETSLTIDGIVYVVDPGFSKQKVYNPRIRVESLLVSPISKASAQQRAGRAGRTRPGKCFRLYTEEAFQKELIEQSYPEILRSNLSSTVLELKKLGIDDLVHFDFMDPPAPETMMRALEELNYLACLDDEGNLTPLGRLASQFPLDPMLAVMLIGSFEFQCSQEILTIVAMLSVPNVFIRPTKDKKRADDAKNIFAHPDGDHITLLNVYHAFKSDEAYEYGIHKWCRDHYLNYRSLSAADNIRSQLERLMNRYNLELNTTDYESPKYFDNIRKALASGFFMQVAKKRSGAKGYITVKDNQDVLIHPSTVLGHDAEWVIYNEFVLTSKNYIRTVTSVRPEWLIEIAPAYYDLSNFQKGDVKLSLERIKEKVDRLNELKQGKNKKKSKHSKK

[2] = target: His10-ZZ-TEV-tagged full length Prp43 (S. cerevisiae, UniProt P53131 1-767); experiment: pull-down
His10-ZZ-TEV-tagged full length Prp43, sequence (P53131 whole entry): as above

Prp43 92–767, sequence (P53131 92-767): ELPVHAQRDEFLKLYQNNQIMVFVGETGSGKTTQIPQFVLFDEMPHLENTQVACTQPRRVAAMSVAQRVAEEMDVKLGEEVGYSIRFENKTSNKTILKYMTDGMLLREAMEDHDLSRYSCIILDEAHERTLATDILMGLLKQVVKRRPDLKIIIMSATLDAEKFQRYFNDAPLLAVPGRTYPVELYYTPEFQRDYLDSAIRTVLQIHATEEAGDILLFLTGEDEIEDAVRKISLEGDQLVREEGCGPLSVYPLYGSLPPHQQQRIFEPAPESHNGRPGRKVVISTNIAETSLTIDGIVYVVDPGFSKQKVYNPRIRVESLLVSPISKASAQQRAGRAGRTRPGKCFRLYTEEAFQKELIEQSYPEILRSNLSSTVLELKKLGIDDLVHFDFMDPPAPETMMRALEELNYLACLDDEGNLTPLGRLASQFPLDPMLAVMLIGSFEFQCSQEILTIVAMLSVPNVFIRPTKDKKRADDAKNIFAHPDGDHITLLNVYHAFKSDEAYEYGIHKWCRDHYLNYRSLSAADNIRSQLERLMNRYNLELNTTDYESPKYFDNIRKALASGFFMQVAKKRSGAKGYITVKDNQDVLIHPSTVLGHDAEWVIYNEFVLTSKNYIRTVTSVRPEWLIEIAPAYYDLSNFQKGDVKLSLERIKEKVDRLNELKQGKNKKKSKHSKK
Prp43 1–657, sequence (P53131 1-657): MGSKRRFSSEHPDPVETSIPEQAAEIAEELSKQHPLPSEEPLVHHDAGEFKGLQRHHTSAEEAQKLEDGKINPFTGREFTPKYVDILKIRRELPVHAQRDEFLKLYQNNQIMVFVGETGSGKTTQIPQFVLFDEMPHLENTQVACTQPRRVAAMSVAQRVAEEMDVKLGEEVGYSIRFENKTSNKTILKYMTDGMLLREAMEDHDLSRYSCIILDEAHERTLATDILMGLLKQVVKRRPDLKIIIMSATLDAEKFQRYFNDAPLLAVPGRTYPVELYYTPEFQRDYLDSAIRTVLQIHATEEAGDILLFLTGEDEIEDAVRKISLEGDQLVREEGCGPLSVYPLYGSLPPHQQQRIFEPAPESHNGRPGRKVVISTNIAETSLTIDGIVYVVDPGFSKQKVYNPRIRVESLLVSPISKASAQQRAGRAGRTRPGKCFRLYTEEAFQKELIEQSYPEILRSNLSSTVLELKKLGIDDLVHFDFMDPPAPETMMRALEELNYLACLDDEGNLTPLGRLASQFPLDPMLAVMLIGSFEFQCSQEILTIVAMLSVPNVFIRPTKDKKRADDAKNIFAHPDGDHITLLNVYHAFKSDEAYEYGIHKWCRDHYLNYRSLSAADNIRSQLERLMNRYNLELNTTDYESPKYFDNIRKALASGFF

Nc1ncnc2c1ncn2[C@@H]1O[C@H](COP(=O)(O)OP(=O)(O)OP(=O)(O)O)[C@@H](O)[C@H]1O [ATP]
NADH-coupled ATPase assay (pyruvate kinase / LDH), A340 (Prp43 1–657): the N- and C-terminal truncations of Prp43 themselves show ATPase activity | NADH-coupled ATPase assay (pyruvate kinase / LDH), A340 (Prp43 92–767): the N- and C-terminal truncations of Prp43 themselves show ATPase activity

fluorescein-labeled 11 nt RNA
Kd (Prp43): 60 nM | Kd [1]: 2.3 nM

B1: His10-ZZ-TEV-tagged Cmg1 (natural protein)
chain: MEESKTKRKEDRIDLKNTPPQKKSKRDSTNDETARTSLRSIMPRGYKMMENMGYKEGETLGSNESALKEPIKVEINTKRRGIRAEKPDPSTMNDMQMSEQRFIKRESEMKNNKRLKKIWYRIQKVAFEMMGDSDLYNPGEDPRDFNVLWRSYVMQLNEEVAKNDLNNHSNNDNEDKNNMIPMVNESLEASPAIKGEKFGRPSTLIDCDTSIIGSRITKDTELAELEELSIEKRITKLNIFLRSEKYYCFFCGIKYKDEGDLYEHCPGVNEDDHK
binding result (His-GFP-tagged Prp43): binds

B2: MBP-tagged full length Cmg1 (natural protein)
chain: B1 chain
binding result [2]: binds

B3: His10-MBP-TEV-tagged Cmg1 1–85 (domain or fragment)
chain: MEESKTKRKEDRIDLKNTPPQKKSKRDSTNDETARTSLRSIMPRGYKMMENMGYKEGETLGSNESALKEPIKVEINTKRRGIRAE
binding result (His-GFP-tagged Prp43): binds | binding result [2]: binds

B4: His10-MBP-TEV-tagged Pxr1 1–82 (domain or fragment)
chain: MGLAATRTKQRFGLDPRNTAWSNDTSRFGHQFLEKFGWKPGMGLGLSPMNSNTSHIKVSIKDDNVGLGAKLKRKDKKDEFDN
binding result (His-GFP-tagged Prp43): binds

B5: His10-MBP-TEV-tagged Sqs1 705–767 (domain or fragment)
chain: VKEGEIVGQNAPEIGNENIGRRMLEKLGWKSGEGLGIQGNKGISEPIFAKIKKNRSGLRHSES
binding result (His-GFP-tagged Prp43): binds

B6: His10-ZZ-TEV-tagged Spp382 G-patch domain (amino acids 51–110) (domain or fragment)
chain: NAPTISKLTKTYGIGAKLLSSMGYVAGKGLGKDGSGITTPIETQSRPMHNAGLGMFSNTN
binding result (His-GFP-tagged Prp43): binds
